Reference: article PMC11261448

Target: T1, TOP-2 [R828C]::3xFLAG, Q23670
T1 chain: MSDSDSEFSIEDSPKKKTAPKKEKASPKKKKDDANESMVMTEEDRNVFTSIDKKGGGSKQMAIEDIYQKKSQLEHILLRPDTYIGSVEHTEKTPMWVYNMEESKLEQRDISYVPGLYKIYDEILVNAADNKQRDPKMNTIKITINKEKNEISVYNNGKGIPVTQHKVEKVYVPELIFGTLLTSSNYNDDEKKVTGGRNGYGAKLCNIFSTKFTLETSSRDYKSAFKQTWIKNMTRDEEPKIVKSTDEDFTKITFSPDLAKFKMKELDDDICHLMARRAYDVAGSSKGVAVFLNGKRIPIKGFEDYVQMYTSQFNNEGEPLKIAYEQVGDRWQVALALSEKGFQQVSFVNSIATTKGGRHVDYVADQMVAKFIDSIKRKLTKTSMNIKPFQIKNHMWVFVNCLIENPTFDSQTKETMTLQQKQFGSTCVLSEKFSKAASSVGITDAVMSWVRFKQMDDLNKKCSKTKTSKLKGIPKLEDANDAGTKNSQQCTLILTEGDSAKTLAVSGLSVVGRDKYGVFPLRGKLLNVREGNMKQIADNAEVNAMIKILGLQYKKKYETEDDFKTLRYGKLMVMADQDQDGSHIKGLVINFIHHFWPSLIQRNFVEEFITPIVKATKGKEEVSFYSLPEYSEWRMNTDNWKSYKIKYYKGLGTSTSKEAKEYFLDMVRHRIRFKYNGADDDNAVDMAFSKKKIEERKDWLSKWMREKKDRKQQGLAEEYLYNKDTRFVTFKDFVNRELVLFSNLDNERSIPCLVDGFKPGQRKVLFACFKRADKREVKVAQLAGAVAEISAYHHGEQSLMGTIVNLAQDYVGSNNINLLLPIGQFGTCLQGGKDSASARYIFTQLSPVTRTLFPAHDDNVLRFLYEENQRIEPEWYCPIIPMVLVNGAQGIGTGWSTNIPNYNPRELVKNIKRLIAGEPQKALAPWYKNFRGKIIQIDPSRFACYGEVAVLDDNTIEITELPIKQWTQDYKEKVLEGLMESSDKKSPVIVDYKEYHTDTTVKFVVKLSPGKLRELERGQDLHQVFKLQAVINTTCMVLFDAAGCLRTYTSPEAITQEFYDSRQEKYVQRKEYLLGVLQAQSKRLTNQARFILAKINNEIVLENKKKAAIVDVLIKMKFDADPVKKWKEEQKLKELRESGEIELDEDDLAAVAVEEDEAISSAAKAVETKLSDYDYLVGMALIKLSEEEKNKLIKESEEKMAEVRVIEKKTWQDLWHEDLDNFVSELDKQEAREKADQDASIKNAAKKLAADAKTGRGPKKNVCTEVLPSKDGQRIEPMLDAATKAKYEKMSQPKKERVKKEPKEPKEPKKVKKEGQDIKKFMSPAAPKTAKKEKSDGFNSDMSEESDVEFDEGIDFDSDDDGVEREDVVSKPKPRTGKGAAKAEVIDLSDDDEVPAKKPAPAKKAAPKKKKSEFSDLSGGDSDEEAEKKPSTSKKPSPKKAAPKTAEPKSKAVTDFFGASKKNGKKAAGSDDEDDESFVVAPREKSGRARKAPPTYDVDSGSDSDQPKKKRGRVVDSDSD
Assay: co-immunoprecipitation (anti-FLAG magnetic agarose beads) with anti-RFP immunoblot, band quantification
Settings: chain shown with the change;; parent: est. 1.0; read off a plot

ratio to parent: 0.33
B1: m1; m2 TDPT-1:G117R; TOP-2:R828C (protein)
chain: MSNSDDEIQEIEAKRQKMSQEDSEVEIEILDEPEQGKLKNSSMSDEQKLHEFAIITATDEAFAQSILQDVDWDLKKALDVFYGSEAFAEARSAAVMGASSSMASSGAAVMTAEDLKRFEVSVMSWNIDGLDGRSLLTRMKAVAHIVKNVNPDILFLQEVVDRDLAPIDKLQSLYKIYYSNKGCQYYTAILVSKMFDVEKHDVIHFQNSGMYRTLQILEGSIGGLKVFLLNTHLESTREHRPQRCAQFGFCMDKVREIIAQNPGALVFFGGDLNLRDEEVSRVPDGVKDAWEAAGSDNKTKFTWDTFKNDNKQGFHGAKMRFDRLYWSGPLDKVKFTLEGRQRIRSCLCFPSDHWAINATFFA
